Source: patent publication US20180311371A1 (Hoffmann-La Roche, published 2018)

Columns and labels:
[1] = target: T1, minipig TPBG, full length, cell surface expressed on CHO-K1 cells (minipig); test: cell-based or functional assay
T1 chain: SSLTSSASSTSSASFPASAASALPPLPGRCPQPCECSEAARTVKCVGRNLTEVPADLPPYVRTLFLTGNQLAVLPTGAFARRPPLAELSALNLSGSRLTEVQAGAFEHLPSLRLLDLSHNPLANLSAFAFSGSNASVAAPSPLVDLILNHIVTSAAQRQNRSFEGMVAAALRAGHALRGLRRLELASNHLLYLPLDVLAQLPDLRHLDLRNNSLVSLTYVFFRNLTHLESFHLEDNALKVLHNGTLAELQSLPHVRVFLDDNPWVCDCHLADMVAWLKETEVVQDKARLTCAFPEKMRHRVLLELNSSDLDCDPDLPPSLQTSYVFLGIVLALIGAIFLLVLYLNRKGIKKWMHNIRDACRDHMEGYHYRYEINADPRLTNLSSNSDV

[2] = target: T2, human TPBG (trophoblast glycoprotein), full length, cell surface expressed (human, UniProt Q13641 32-420); test: cell-based or functional assay
T2 sequence: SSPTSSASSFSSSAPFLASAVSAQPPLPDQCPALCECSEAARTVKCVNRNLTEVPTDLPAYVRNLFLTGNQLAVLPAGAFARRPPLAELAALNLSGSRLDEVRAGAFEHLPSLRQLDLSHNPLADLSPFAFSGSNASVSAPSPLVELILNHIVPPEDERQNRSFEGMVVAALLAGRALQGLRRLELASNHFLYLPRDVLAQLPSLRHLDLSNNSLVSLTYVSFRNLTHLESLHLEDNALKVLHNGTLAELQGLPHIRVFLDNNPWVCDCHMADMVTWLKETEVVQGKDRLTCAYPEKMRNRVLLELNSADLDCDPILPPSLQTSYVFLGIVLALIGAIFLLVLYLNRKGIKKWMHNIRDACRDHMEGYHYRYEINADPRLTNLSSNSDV

[3] = target: T2, human TPBG (trophoblast glycoprotein), …; test: cell-based or functional assay; remark: listed apart in the source
[4] = target: T1, minipig TPBG, full length, cell surface …; test: cell-based or functional assay
[5] = target: T2, human TPBG (trophoblast glycoprotein), …; test: cell-based or functional assay; remark: listed apart in the source
[6] = target: T2, human TPBG (trophoblast glycoprotein), …; test: cell-based or functional assay; remark: listed apart in the source
[7] = target: T2, human TPBG (trophoblast glycoprotein), …; test: cell-based or functional assay; remark: listed apart in the source
[8] = target: T3, huTPBG (recombinant human TPBG immobilised on the Biacore chip) (human, UniProt Q13641 32-355, limits assumed); test: SPR Biacore T200; huTPBG amine-coupled, Fab injected
T3 construct: also called human TPBG antigen
T3 sequence: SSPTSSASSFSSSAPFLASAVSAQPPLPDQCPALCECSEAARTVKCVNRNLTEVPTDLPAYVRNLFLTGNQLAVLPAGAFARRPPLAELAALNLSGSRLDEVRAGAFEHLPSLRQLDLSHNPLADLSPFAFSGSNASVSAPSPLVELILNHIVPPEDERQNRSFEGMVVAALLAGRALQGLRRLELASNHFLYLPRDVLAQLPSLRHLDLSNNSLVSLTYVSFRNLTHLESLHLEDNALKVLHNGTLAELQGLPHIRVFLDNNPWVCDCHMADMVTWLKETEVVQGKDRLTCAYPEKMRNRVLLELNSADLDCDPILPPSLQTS

[9] = target: T2, human TPBG (trophoblast glycoprotein), …; test: flow cytometry on SW620 clone 4 cells; ratio of MFI; replicate 1
[10] = target: T2, human TPBG (trophoblast glycoprotein), …; test: flow cytometry on SW620 clone 4 cells; ratio of MFI; replicate 2
[11] = target: T4, recombinant extracellular domain of minipig TPBG (Biacore analyte) (minipig); test: SPR (Biacore T200): Fab captured on anti-huFab antibody, minipig TPBG injected for 120 s at 4.9-400 nM, dissociation 660 s
T4 chain: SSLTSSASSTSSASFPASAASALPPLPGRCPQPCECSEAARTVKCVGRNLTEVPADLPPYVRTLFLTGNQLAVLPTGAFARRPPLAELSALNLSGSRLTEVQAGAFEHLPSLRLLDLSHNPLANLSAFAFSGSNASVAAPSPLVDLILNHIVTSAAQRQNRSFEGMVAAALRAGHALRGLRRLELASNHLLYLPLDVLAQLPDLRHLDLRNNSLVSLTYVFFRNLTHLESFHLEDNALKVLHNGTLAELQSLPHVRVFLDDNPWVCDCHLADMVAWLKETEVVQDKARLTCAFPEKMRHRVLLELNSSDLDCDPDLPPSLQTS

[12] = target: T1, minipig TPBG, full length, cell surface …; test: flow cytometry on CHO cells stably expressing minipig TPBG; Fab dilution series 0.01-20 µg/ml, PE-labelled anti-kappa secondary antibody
[13] = target: T5, murine TPBG extracellular domain, huIgG1-Fc-His6 (murine); test: ELISA; Fc-TPBG coated; (-) = no binding
T5 construct: also called Fc-TPBG (mo)
T5 sequence (chain, as listed by the source limits assumed): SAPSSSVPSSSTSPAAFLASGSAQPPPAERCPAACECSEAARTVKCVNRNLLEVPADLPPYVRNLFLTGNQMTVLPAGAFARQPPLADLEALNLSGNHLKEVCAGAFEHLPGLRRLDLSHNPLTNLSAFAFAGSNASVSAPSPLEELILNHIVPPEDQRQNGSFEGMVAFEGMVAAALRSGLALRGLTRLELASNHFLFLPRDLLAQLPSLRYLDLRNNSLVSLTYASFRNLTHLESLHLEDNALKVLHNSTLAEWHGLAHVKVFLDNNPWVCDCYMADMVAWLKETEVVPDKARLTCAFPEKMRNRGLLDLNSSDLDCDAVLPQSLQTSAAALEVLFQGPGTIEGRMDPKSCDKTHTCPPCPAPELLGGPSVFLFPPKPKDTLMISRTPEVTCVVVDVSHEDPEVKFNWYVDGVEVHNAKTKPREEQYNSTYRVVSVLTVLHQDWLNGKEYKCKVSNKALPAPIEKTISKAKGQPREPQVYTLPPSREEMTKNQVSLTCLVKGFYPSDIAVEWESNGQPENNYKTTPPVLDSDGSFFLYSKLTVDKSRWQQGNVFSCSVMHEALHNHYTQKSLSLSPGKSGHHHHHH

[14] = target: T6, minipig TPBG extracellular domain, huIgG1-Fc-His (minipig); test: ELISA; Fc-TPBG coated; mAb titrated from 1 µg/ml
T6 construct: also called Fc-TPBG (mp)

[15] = target: T7, human TPBG extracellular domain, huIgG1-Fc-His6 (human); test: ELISA; Fc-TPBG coated; mAb titrated from 1 µg/ml
T7 construct: also called Fc-TPBG (hu)

[16] = target: T8, rat TPBG extracellular domain, huIgG1-Fc-His6 (rat); test: ELISA; Fc-TPBG coated; mAb titrated from 1 µg/ml
T8 construct: also called Fc-TPBG (rt)
T8 sequence (chain, as listed by the source limits assumed): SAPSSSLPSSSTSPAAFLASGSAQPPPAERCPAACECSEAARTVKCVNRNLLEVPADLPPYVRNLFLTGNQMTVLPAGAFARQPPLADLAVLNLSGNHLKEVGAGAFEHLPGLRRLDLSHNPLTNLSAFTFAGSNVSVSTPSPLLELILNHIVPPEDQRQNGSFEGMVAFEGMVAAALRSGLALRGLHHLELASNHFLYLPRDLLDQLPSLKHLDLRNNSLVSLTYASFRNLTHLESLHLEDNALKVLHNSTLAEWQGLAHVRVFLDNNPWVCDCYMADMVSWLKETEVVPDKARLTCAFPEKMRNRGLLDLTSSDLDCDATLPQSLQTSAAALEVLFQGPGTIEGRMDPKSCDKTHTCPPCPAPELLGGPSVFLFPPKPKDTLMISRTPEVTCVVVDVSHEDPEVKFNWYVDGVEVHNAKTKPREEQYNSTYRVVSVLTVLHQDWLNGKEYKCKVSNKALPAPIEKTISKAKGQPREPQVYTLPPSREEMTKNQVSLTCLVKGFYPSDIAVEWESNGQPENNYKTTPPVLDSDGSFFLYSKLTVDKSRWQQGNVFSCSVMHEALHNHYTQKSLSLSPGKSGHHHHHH

[17] = target: T9, cynomolgus TPBG extracellular domain, huIgG1-Fc-His6 (cynomolgus); test: ELISA; Fc-TPBG coated; (-) = no binding
T9 construct: also called Fc-TPBG (cy)
T9 sequence (chain, as listed by the source limits assumed): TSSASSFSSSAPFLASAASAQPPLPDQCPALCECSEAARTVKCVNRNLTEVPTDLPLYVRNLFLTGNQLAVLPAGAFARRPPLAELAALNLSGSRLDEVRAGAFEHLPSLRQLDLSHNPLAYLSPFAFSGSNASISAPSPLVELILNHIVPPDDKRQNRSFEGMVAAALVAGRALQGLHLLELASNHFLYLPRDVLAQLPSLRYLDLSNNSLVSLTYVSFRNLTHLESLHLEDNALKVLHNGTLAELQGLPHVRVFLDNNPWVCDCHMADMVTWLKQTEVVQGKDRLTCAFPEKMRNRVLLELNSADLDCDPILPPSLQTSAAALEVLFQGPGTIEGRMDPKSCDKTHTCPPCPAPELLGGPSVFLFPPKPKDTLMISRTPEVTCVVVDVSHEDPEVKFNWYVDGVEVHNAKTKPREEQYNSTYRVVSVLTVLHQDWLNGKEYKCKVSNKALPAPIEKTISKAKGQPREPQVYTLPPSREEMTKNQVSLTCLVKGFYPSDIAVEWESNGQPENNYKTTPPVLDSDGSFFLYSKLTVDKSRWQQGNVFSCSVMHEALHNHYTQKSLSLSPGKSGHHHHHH

[18] = target: T8, rat TPBG extracellular domain, …; test: ELISA; Fc-TPBG coated; (-) = no binding

B1: prior art anti-TPBG antibody H8, Fab fragment (Fab, V domains shown)
VH: EVQLQQSGPDLVKPGASVKISCKASGYSFTGYYMHWVKQSHGKSLEWIGRINPNNGVTLYNQKFKDKAILTVDKSSTTAYMELRSLTSEDSAVYYCARSTMITNYVMDYWGQVTSVTVSS
VL: SIVMTQTPTFLLVSAGDRVTITCKASQSVSNDVAWYQQKPGQSPTLLISYTSSRYAGVPDRFIGSGYGTDFTFTISTLQAEDLAVYFCQQDYNSPPTFGGGTKLEIKR
notes: also called Fab(H8); Fab1
Question: What does the source list for B1?
Answer: fold lower potency on minipig TPBG cells than on human TPBG cells, sandwich construct [1]: ~100 fold; internalization after 1.0 h, MCF7 cells [2]: 61%; internalization after 2.0 h, MCF7 cells [2]: 79%; EC50 cytotoxicity, Fab + anti-kappa-Fab-PE, CHO-K1/human TPBG, replicate 1 [3]: 0.41 nM; EC50 cytotoxicity, Fab + anti-kappa-Fab-PE, CHO-K1/human TPBG, replicate 2 [3]: 0.52 nM; EC50 cytotoxicity, Fab + anti-kappa-Fab-PE, CHO-K1/minipig TPBG, replicate 1 [4]: 48 nM; EC50 cytotoxicity, Fab + anti-kappa-Fab-PE, CHO-K1/minipig TPBG, replicate 2 [4]: 45.9 nM; EC50 cytotoxicity, Fab-PE sandwich construct, MCF7 [5]: 1.25 nM; EC50 cytotoxicity, Fab-PE sandwich construct, MCF7 (comparison with A1-A3) [6]: 1.85 nM; EC50 cytotoxicity, Fab-PE sandwich construct, H1975, replicate 1 [7]: 0.698 nM; EC50 cytotoxicity, Fab-PE sandwich construct, H1975, replicate 2 [7]: 0.451 nM; EC50 cytotoxicity, Fab-PE sandwich construct, H1975, replicate 3 [7]: 0.656 nM; Kd [8]: 1.58 pM; koff [8]: 2.17e-07 s⁻¹; kon [8]: 137000 M⁻¹ s⁻¹; Fold change pH 7.2 vs pH 5.5 [9]: 4.2 fold; Fold change pH 7.2 vs pH 5.5 [10]: 6.8 fold; binding result [11]: no binding; binding result [12]: no binding (tested: 20 µg/ml)

B2: anti-TPBG antibody 091 (mAb) (antibody, V domains shown)
VH: EVHLLESGGGLVHPGGSLRLSCAASGFTFRSDAMHWVRQAPGKGLEWVSGVSGSGGSPYYADSVKGRFTISRDDSKTTLYLQMNSLRAEDTAVYYCATGGSIAGSYYYYPMDVWGQGTTVTVSS
VL: DIQMTQSPSSLSASVGDRVTITCQASQDISNYLNWYQQKPGKAPKLLIYAASTLQIGVPSRFSGSGSGTDFTFTISSLQPEDFATYYCQQANSFPLTFGGGTKVEIK
Question: Does B2 bind [13]?
Answer: no binding (tested: titrated from 1 µg/ml)

Question: Does B2 bind [14]?
Answer: binds

Question: Does B2 bind [15]?
Answer: binds

Question: Does B2 bind [16]?
Answer: binds

B3: anti-TPBG antibody 097 (mAb) (antibody, V domains shown)
VH: EVQLLESGGGLAQPGGSLRLSCAASGFTFNNDAMTWVRQAPGKGLEWVSAISGSGGSTYYADSVKGRFTISRDNSKNTLYLQMNSLRAEDTAVYYCAKGGSWGDWYYYFYPMDVWGQGTTVTVSS
VL: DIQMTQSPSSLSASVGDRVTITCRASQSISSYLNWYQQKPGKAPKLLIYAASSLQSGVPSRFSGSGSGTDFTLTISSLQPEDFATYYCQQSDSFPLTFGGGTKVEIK
Question: Does B3 bind [13]?
Answer: no binding (tested: titrated from 1 µg/ml)

Question: Does B3 bind [17]?
Answer: no binding (tested: titrated from 1 µg/ml)

Question: Does B3 bind [18]?
Answer: no binding (tested: titrated from 1 µg/ml)

Question: Does B3 bind [14]?
Answer: binds

Question: Does B3 bind [15]?
Answer: binds
